Measurements reported in US20250034266A1 (ZAI LAB SHANGHAI, published 2025).

Assays:
human CCR8 [1] = biological target: T1, human CCR8 (human, UniProt P51685 1-355); assay: FACS, competition with AF647-human CCL1 on HEK293-human CCR8 cells
T1 construct: whole, on cells; also called hCCR8
Protocol: (§1) Antibodies were prepared with 3-fold serial dilution ranging from 200 nM to 0.01 nM in FACS buffer. Then, cells were washed by FACS buffer for three times after incubation. […] FlowJo software was used for analysis. Data was plotted as the logarithm of antibody concentration versus mean fluorescence signals. IC₅₀ values were determined in GraphPad Prism 8 (GraphPad Software) using a log(agonist) vs. response-Variable slope (4 parameters) curve fit.

human CCR8 [2] = biological target: T1, human CCR8; assay: FACS, competition with AF647-human CCL1 on CHO-K1-human CCR8 cells
Protocol: as §1

human CCR8 [3] = biological target: T1, human CCR8; assay: FACS, competition with CCL1 on CHO-K1-human CCR8 cells
cynomolgus CCR8 = biological target: T2, cynomolgus CCR8 (cynomolgus, UniProt G7NYJ2 1-355); assay: FACS on HEK293-cynomolgus CCR8 cells
T2 construct: whole, on cells
T2 sequence (G7NYJ2 entry or part of it): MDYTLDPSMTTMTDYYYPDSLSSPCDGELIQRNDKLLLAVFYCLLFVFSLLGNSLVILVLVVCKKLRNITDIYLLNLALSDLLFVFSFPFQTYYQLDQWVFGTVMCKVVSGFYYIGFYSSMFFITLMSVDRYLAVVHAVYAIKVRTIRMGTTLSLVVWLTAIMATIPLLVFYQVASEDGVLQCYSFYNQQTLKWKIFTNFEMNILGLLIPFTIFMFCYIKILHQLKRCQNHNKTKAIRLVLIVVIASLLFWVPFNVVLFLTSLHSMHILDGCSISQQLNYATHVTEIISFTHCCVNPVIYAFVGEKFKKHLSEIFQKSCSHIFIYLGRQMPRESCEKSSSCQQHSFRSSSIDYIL

human CCR8 [4] = biological target: T1, human CCR8; assay: FACS on HuT78 cells (endogenous human CCR8)
Protocol: HuT78 cells expressing endogenous human CCR8 were used for determining binding affinities of selected affinity matured anti-CCR8 antibodies. Briefly, a total of […] cells for each well were seeded in 96-well plates and washed with FACS buffer (DPBS containing […]) for once. […] Cells were incubated with 50 μL of diluted antibodies at 4° C. for 1 hour. After primary antibody incubation, cells were washed for 3 times by FACS buffer. Then, cells were stained by Alexa Fbu647 labeled anti-human IgG secondary antibody (Jackson ImmunoResearch, #109606170) at 1:600 dilution in FACS buffer for 0.5 hour at 4° C. After 3 times washed, flow cytometry (Sartourius, iQue3) was performed to measure the binding affinities of antibodies. […]

human CCR8 [5] = biological target: T1, human CCR8; assay: FACS on CHO-K1-human CCR8 cells

T1 sequence (P51685 whole entry): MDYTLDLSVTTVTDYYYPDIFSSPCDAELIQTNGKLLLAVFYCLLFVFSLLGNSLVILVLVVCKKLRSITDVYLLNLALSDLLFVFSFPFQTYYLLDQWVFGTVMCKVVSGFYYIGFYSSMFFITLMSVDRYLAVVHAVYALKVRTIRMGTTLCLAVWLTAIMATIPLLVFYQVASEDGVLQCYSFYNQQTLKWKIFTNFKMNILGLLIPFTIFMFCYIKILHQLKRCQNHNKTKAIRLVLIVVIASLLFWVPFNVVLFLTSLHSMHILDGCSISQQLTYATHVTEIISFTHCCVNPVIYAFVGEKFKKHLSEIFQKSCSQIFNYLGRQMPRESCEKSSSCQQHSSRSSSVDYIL

IC50 (human CCR8 [1])	Max Inhibition (%) (human CCR8 [1])	IC50 (human CCR8 [2])	Max Inhibition (%) (human CCR8 [2])	IC50 (human CCR8 [3])	Max Inhibition (%) (human CCR8 [3])	EC50 (cynomolgus CCR8)	Max MFI (cynomolgus CCR8)	Max MFI (human CCR8 [4])	EC50 (human CCR8 [5])	Max MFI (human CCR8 [5])	EC50 (human CCR8 [4])	Binder
–	–	–	–	0.168 nM	100%	0.214 nM	3.95e+06 MFI	187000 MFI	0.161 nM	666000 MFI	–	Hu149-19 (antibody, human IgG1, V domains shown, human IgG1) VH: EVQLVESGGGLVQPGGSLKLSCAASGFTFNTYAMNWVRQASGKGLEWVGRIRSKSNFYATAYAASVKGRFTISRDDSKNTAYLQMNSLKTEDTAVYYCTRGREYGSSYAMDYWGQGTLVTVSS VL: DIVMTQSPLSLPVTPGEPASISCRSSKSLLHSNANTYLYWFLQKPGQSPQLLIYRMSNLASGVPDRFSGSGSGTDFTLKISRVEAEDVGVYYCMQHLKYPLTFGGGTKVELK
–	–	–	–	0.147 nM	100%	0.158 nM	4.02e+06 MFI	253000 MFI	0.129 nM	751000 MFI	–	Hu149-20 (antibody, human IgG1, V domains shown, human IgG1) VH: EVQLVESGGGLVQPGGSLKLSCAASGFTFNTYAMNWVRQASGKGLEWVGRIRSKSNFYATAYAASVKGRFTISRDDSKNTAYLQMNSLKTEDTAVYYCTRGKEYGSSYAMDYWGQGTLVTVSS VL: DIVMTQSPLSLPVTPGEPASISCRSSKSLLHSNANTYLYWFLQKPGQSPQLLIYRMSNLASGVPDRFSGSGSGTDFTLKISRVEAEDVGVYYCMQHLKYPLTFGGGTKVELK
–	–	–	–	0.0698 nM	100%	0.123 nM	4.11e+06 MFI	29600 MFI	0.0755 nM	645000 MFI	–	Hu149-17 (antibody, human IgG1, V domains shown, human IgG1) VH: EVQLVESGGGLVQPGGSLKLSCAASGFTFNTYAMNWVRQASGKGLEWVGRIRSKSNFYATAYAASVKGRFTISRDDSKNTAYLQMNSLKTEDTAVYYCTRGRDYGSSYAMDYWGQGTLVTVSS VL: DIVMTQSPLSLPVTPGEPASISCRSSKSLLHSNANTYLYWFLQKPGQSPQLLIYRMSNLASGVPDRFSGSGSGTDFTLKISRVEAEDVGVYYCMQHLSYPLTFGGGTKVELK
–	–	–	–	0.796 nM	101%	0.946 nM	4.15e+06 MFI	240000 MFI	0.642 nM	794000 MFI	–	Hu149-21 (antibody, human IgG1, V domains shown, human IgG1) VH: EVQLVESGGGLVQPGGSLKLSCAASGFTFNTYAMNWVRQASGKGLEWVGRIRSKSNFYATAYAASVKGRFTISRDDSKNTAYLQMNSLKTEDTAVYYCTRGREYGRSYAMDYWGQGTLVTVSS VL: DIVMTQSPLSLPVTPGEPASISCRSSKSLLHSNANTYLYWFLQKPGQSPQLLIYRMSNLASGVPDRFSGSGSGTDFTLKISRVEAEDVGVYYCMQHLKYPLTFGGGTKVELK
–	–	–	–	0.459 nM	101%	0.462 nM	4.25e+06 MFI	173000 MFI	0.216 nM	793000 MFI	–	Hu149-22 (antibody, human IgG1, V domains shown, human IgG1) VH: EVQLVESGGGLVQPGGSLKLSCAASGFTFNTYAMNWVRQASGKGLEWVGRIRSKSNFYATAYAASVKGRFTISRDDSKNTAYLQMNSLKTEDTAVYYCTRGREYGSAYAMDYWGQGTLVTVSS VL: DIVMTQSPLSLPVTPGEPASISCRSSKSLLHSNANTYLYWFLQKPGQSPQLLIYRMSNLASGVPDRFSGSGSGTDFTLKISRVEAEDVGVYYCMQHLKYPLTFGGGTKVELK
–	–	–	–	0.114 nM	101%	0.142 nM	3.8e+06 MFI	228000 MFI	0.0659 nM	672000 MFI	–	Hu149-16 (antibody, human IgG1, V domains shown, human IgG1) VH: EVQLVESGGGLVQPGGSLKLSCAASGFTFNTYAMNWVRQASGKGLEWVGRIRSKSNFYATAYAASVKGRFTISRDDSKNTAYLQMNSLKTEDTAVYYCTRGRDYGSSYAMDYWGQGTLVTVSS VL: DIVMTQSPLSLPVTPGEPASISCRSSKSLLHSNANTYLYWFLQKPGQSPQLLIYRMSNLASGVPDRFSGSGSGTDFTLKISRVEAEDVGVYYCMQHLKYPLTFGGGTKVELK

Second part, the binder before the results:

Binder	IC50 (human CCR8 [1])	Max Inhibition (%) (human CCR8 [1])	IC50 (human CCR8 [2])	Max Inhibition (%) (human CCR8 [2])	IC50 (human CCR8 [3])	Max Inhibition (%) (human CCR8 [3])	EC50 (cynomolgus CCR8)	Max MFI (cynomolgus CCR8)	Max MFI (human CCR8 [4])	EC50 (human CCR8 [5])	Max MFI (human CCR8 [5])	EC50 (human CCR8 [4])
348E2D11 (antibody, V domains shown, purified murine hybridoma antibody) VH: QVQLVETGGGLVRPGNSLKLSCVTSGFSFSNYRMHWLRQPPGKRLEWIAVITVKSDNYGANYAESVKGRFTISRDDSKSSVYLQMNRLREEDTATYYCSSLGRVAYWGQGTLVTVSA VL: DIVMTQSQKFMFTSVGDRVSVTCKASQNVDTNVVWYQQKPGQSPKALIYSASSRYSGVPDRFTGSGSGTDFTLTISNVQSEDLAEYFCQQHNSFPLTFGAGTKLELI	0.368 nM	100%	0.231 nM	95%	–	–	–	–	–	–	–	–
262C2G7 (antibody, V domains shown, purified murine hybridoma antibody) VH: DVHLQESGPGLVKPSQSLSLTCSVTGYSITSGYYWNWIRQFPGNKLEWMGYISYDGSNNYNPSLKNRISITRDISKNQFFLKLNSVTTEDTATYYCARQIGLRRGAMDYWGQGTSVTVSS VL: DIQMTQSSSYLSVSLGGRVTITCKASDHINNWLAWYQQKPGNAPRLLISGSTSLKAGVASRFSGSGSGKDYTLTITSLQTEDVATYYCQQYWGIPFTFGGGTKLEIK	0.632 nM	86.1%	1.57 nM	95.6%	–	–	–	–	–	–	–	–
191E12H8 (antibody, V domains shown, purified murine hybridoma antibody) VH: DVQLQESGPGLVKPSQSLSLTCSVTGYSITSGYYWNWIRQFPGNKLEWMGYISYDGSNNYNPSLKNRISITRDISKNQFFLKLNSVTTEDTATYYCARQIGLRRGAMDYWGQGTSVTVSS VL: DIQMTQSSSYLSVSLGGRVTITCKASDHINTWLAWYQQKPGNAPRLLISGSTSLKAGVASRFSGSGSGKDYTLTITSLQTEDVATYYCQQYWGIPFTFGGGTKLEIK	0.934 nM	85.6%	13.3 nM	89.7%	–	–	–	–	–	–	–	–
273H2G6 (antibody, V domains shown, purified murine hybridoma antibody) VH: DVQLQESGPGLVKPSQSLSLTCSVTGYSITSGYYWNWIRQFPGNKLEWMGYISYDGSNNYNPSLKNRISITRDISKNQFFLKLNSVTTEDTATYYCARQVGLRRGAMDYWGQGTSVTVSS VL: DIQMTQSSSYLSVSLGGRVTITCKASDHINNWLAWYQQKPGNAPRLLISGSTSLKAGVASRFSGSGSGKDYTLSITSLQTEDVATYYCQQYWSIPYTFGGGTKLEIK	0.782 nM	85.8%	2.48 nM	91.3%	–	–	–	–	–	–	–	–
234G9C12 (antibody, V domains shown, purified murine hybridoma antibody) VH: DVQLQESGPGLVKPSQSLSLTCSVTGYSITSGYYWNWIRQFPGNKLEWMGYTSYDGSNNYNPSFKNRISITRDISKNQFFLKLNSVTTEDTATYYCARQIGLRRGAMDHWGQGTSVTVSS VL: DIQMTQSSSYLSVSLGGRVTITCKASDHINNWLAWYQQKPGNAPRLLISGSTSLRAGVASRFSGSGSGKDYTLTITSLQTEDVATYYCQQYWGIPFTFGGGTKLEIK	0.812 nM	94%	1.34 nM	96.8%	–	–	–	–	–	–	–	–
Hu149-13 (antibody, human IgG1, V domains shown, human IgG1) VH: EVQLVESGGGLVQPGGSLKLSCAASGFTFNTYAMNWVRQASGKGLEWVGRIRSKSNFYATAYAASVKGRFTISRDDSKNTAYLQMNSLKTEDTAVYYCTRGREYGRSYAMDYWGQGTLVTVSS VL: DIVMTQSPLSLPVTPGEPASISCRSSKSLLHSNANTYLYWFLQKPGQSPQLLIYRMSNLASGVPDRFSGSGSGTDFTLKISRVEAEDVGVYYCMQHLEYPLTFGGGTKVELK	–	–	–	–	0.0841 nM	102%	0.193 nM	4.37e+06 MFI	39100 MFI	0.1 nM	653000 MFI	–
Hu149-15 (antibody, human IgG1, V domains shown, human IgG1) VH: EVQLVESGGGLVQPGGSLKLSCAASGFTFNTYAMNWVRQAPGKGLEWVGRIRSKSNFYATAYAASVKGRFTISRDDSKNTAYLQMNSLKTEDTAVYYCTRGRDYGSSYAMDYWGQGTLVTVSS VL: DIVMTQSPLSLPVTPGEPASISCRSSKSLLHSNANTYLYWFLQKPGQSPQLLIYRMSNLASGVPDRFSGSGSGTDFTLKISRVEAEDVGVYYCMQHLEYPLTFGGGTKVELK	–	–	–	–	0.104 nM	99.3%	0.282 nM	3.93e+06 MFI	21300 MFI	0.128 nM	627000 MFI	0.108 nM
Hu149-14 (antibody, human IgG1, V domains shown, human IgG1) VH: EVQLVESGGGLVQPGGSLKLSCAASGFTFNTYAMNWVRQASGKGLEWVGRIRSKSNFYATAYAASVKGRFTISRDDSKNTAYLQMNSLKTEDTAVYYCTRGREYGSAYAMDYWGQGTLVTVSS VL: DIVMTQSPLSLPVTPGEPASISCRSSKSLLHSNANTYLYWFLQKPGQSPQLLIYRMSNLASGVPDRFSGSGSGTDFTLKISRVEAEDVGVYYCMQHLEYPLTFGGGTKVELK	–	–	–	–	0.0816 nM	100%	0.157 nM	4.42e+06 MFI	28600 MFI	0.0626 nM	663000 MFI	0.184 nM
